We go through nine molecules from patent publication US7090834B1, “Vascular endothelial cell growth factor variants and uses thereof” (Genentech, Inc., priority 1999, dated 2006).

Numbering of substitutions follows the chain as printed. Where two headings read alike, the source gives them in different places.

Assay [1] concerns HUVEC cells. Kind of assay: HUVEC migration, modified Boyden chamber assay. Format: cell-based, human. The note with it: highest concentration of inhibitor, migration in response to native VEGF, 4 hours, FIG. 14B. How it is done:
One of the central aspects of VEGF action on endothelial cells is its ability to act as a chemoattractant and stimulate the migration of endothelial cells. HUVEC cell migration was analyzed in a modified Boyden chamber assay as follows.
Falcon 8.0 micron filter inserts (Falcon 3097) were coated with type 1 collagen (VITROGEN, COHESION). HUVEC (obtained from Cell Systems, <passage 8) were grown in Cell Systems complete media (4ZO-500) with 10% FCS. Cells were trypsinized and transferred to EBM (Endothelial basal media, Clonetics) with 0.1% BSA for the assay. Cells were plated at 5×10^4 per upper chamber. […] The assay was routinely an 18 hour assay at 37° C. For the LY294002 inhibitor experiments, cells were allowed to adhere for 30 minutes prior to addition of the inhibitor. 20 minutes after inhibitor addition, VEGF was added to the bottom well and the assay was allowed to proceed for only 4 hours to avoid the occurrence of apoptosis associated with the treatment of these primary cells with LY294002 (purchased from Biomol).
Cells were removed from the upper side of the membrane by scraping with a polyurethane swab and then the remaining cells on the bottom side of the membrane were fixed with methanol. Cells were stained with Yo-Pro Iodide nuclear stain (Molecular Probes) and counted under low power fluorescence using an Image-Pro cell recognition program.

Assay [2] deals with Flt-1 receptor. As to the kind of experiment: RIA assay, binding to FLT-1 receptor. How it is done: Various assays were conducted to examine the properties and biological activities of the I43A/I46A/Q79A/I83A Flt-sel variant. For example, quantitative binding measurements were carried out using a soluble radio-immuno receptor-binding assay (RIA), as described in Example 6 above.
Target sequence in this assay (P17948 27-331 limits assumed): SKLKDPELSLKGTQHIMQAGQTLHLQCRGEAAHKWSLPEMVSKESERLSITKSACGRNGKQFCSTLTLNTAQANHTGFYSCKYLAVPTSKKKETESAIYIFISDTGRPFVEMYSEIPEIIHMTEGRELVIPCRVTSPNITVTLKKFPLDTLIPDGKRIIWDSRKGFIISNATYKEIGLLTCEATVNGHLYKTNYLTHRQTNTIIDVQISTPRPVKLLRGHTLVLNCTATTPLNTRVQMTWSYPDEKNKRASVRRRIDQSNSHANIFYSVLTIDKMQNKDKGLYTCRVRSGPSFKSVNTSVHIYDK

In assay [3] the test system is PLC-gamma in HUVEC cells. Kind of assay: PLC-gamma tyrosine phosphorylation after immunoprecipitation. The note with it: 20 ng/ml, 5 minutes, FIG. 13A. Type of assay: cell-based, human. How it is done: In order to determine which VEGF receptor(s) are involved in PLC-gamma activation in primary endothelial cells, HUVEC cells were treated with native VEGF or VEGF receptor-selective variants and PLC-gamma phosphorylation was assessed after immunoprecipitation.
Passage 4–7 HUVEC cells (Cell Systems, Kirkland, Wash.) were grown in Cell System's complete medium (AZ0-500) with 10% fetal calf serum and growth factors on gelatin-coated dishes and made quiescent by 14 hour starvation in 0.2% serum. […] The cells were then lysed in 0.5–1 ml RIPA buffer containing 0.1 mM sodium orthovanadate, 5 mM para-nitrophenylphosphate, 10 mM sodium fluoride, 0.5 micromolar okadaic acid and a protease inhibitor cocktail (Roche MB 1836145). PLC-gamma was then immunoprecipitated from whole cell lysates using monoclonal antibodies (Upstate Biotechnology) and analyzed for tyrosine phosphorylation (FIG. 13A) or lysates were immunoprecipitated with monoclonal antibodies against p85 PI 3′-kinase (purchased from Transduction Labs (P13020) and Neomarkers (MS424-P)) and tested for phosphotyrosine using phosphotyrosine antibodies PY20 or E120H (Transduction Labs) (FIG. 13B). Immunoprecipitation was conducted as follows. Protein A/G beads (Pierce) were blocked for nonspecific protein binding in 50 mM HEPES pH 7.2, 0.1% TX-100, 150 mM NaCl and 1 mg/ml ovalbumin for 30 minutes. Antibodies were precoupled in the same buffer for 1 hour at 4° C. with head over end rotation and beads were washed 3 times in lysis buffer. Beads were added to the lysates and rotated overnight. Beads were washed sequentially in 50 mM Tris pH 7.6, 150 mM NaCl, 1% TX-100, 1 mM CaCl2; 50 mM Tris pH 7.6, 500 mM NaCl, 0.1% TX-100, 1 mM CaCl2 and 50 mM Tris pH 7.6, 150 mM NaCl, 0.05% TX-100, 1 mM CaCl2. Beads were then resuspended in 2× sample buffer and boiled. Supernatants were applied directly to 4–12% Tris-Glycine gradient gels (Novex).

The target in assay [4] is KDR receptor on HUVEC cells (human, UniProt P35968 20-1356). Kind of assay: cell-based or functional assay.
KDR receptor on HUVEC cells, sequence (P35968 20-1356): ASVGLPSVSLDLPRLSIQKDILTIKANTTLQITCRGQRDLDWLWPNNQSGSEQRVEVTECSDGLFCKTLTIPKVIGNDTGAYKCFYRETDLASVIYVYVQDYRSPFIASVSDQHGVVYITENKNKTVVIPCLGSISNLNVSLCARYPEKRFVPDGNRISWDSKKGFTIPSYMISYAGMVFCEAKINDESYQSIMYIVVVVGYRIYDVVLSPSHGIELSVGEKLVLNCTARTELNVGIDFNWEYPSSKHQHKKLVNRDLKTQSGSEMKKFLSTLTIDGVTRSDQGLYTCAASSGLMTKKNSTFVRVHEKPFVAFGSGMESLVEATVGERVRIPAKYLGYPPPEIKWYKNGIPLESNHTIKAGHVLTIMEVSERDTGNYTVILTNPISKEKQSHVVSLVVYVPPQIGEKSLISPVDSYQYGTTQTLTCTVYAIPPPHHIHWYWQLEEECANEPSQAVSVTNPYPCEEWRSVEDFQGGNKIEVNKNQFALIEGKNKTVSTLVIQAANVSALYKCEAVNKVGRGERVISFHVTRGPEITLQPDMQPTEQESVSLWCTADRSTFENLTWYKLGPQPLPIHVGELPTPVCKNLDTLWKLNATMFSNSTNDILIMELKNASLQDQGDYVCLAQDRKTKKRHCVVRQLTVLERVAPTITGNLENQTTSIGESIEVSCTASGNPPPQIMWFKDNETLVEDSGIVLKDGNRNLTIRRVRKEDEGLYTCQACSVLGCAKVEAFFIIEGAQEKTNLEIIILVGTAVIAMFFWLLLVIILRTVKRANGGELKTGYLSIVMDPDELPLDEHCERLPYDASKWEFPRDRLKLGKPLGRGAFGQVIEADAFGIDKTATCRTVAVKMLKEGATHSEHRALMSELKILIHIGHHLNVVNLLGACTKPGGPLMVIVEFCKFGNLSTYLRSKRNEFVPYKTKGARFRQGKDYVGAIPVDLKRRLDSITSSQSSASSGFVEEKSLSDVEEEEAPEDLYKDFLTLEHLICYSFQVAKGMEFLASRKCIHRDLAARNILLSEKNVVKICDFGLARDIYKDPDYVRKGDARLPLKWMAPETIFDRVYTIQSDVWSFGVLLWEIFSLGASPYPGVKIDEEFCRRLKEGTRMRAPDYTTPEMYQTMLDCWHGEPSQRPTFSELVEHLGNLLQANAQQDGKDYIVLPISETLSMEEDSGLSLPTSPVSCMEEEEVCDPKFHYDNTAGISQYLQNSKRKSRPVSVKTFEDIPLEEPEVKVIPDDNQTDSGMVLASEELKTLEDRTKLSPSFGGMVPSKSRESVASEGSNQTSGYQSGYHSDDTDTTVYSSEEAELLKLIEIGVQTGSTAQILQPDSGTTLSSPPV
For assay [5], the target named is KDR receptor (Homo sapiens, UniProt P35968). As to the kind of experiment: KDR receptor binding ELISA (inhibition of biotinylated native VEGF (8–109) binding). As to conditions: second figure of the cell, variant midpoint concentration divided by that of native VEGF. How it is done:
(§1) Receptor binding assays were performed in 96-well immunoplates (Maxisorp, Nunc-Immunoplate, Nalge Nunc International, Rochester, N.Y.). Each well was coated with 100 μl of a solution containing 8 μg/ml of a monoclonal antibody to KDR known as MAKD5 (Genentech, South San Francisco, Calif.) in 50 mM carbonate buffer at pH 9.6 and incubated at 4° C. overnight. The supernatant was discarded, the wells were washed three times in washing buffer (0.05% Tween 20 in PBS), and the plate was blocked (150 μl per well) with block buffer (0.5% BSA, 0.01% thimerosal in PBS) at room temperature for one hour. The supernatant was discarded, and the wells were washed.
Aliquots of this mixture (100 μl) were added to the precoated microtiter wells and the plate was incubated for 1 hour at room temperature. […] The wells were then incubated with 3, 3′, 5,5′-tetramethyl benzidine (0.2 gram/liter; Kirkegaard & Perry Laboratories, Gaithersburg, Md.) for about 10 minutes at room temperature. Absorbance was read at 450 nm on a Vmax plate reader (Molecular Devices, Menlo Park, Calif.).
(§2) Titration curves were fit with a four-parameter nonlinear regression curve-fitting program (KaleidaGraph, Synergy Software, Reading, Pa.).

In assay [6] the target is Flt-1 receptor. As to the kind of experiment: Flt-1 receptor binding ELISA (inhibition of biotinylated native VEGF binding to Flt-IgG). The note with it: for Relative Binding Affinity, FLT-1 Receptor: concentration at midpoint absorbance: first figure of the cell, Flt-IgG; for Relative Binding Affinity, FLT-1 Receptor: ratio to native VEGF (8–109): second figure of the cell, fold less binding than native VEGF. The procedure:
(§3) Receptor binding assays were performed in 96-well immunoplates (Maxisorp, Nunc-Immunoplate, Nalge Nunc International, Rochester, N.Y.). Each well was coated with 100 μl of a solution containing 2 μg/ml of rabbit F(ab′)2 to human IgG Fc (Jackson ImmunoResearch, West Grove, Pa.) in 50 mM carbonate buffer at pH 9.6 and incubated at 4° C. overnight. The supernatant was then discarded, the wells were washed three times in washing buffer (0.05% Tween 20 in PBS), and the plate was blocked (150 μl per well) with block buffer (0.5% BSA, 0.01% thimerosal in PBS) at room temperature for one hour. The supernatant was discarded, and the wells were washed.
(§4) The wells were filled with 100 μl of a solution containing Flt-IgG (a chimeric Flt-human Fc molecule) at 50 ng/ml in assay buffer (0.5% BSA, 0.05% Tween 20 in PBS). The wells were incubated at room temperature for 1 hour and then washed three times in wash buffer (0.05% Tween 20 in PBS).
Aliquots of the mixture (100 μl) were added to the precoated microtiter wells and the plate was incubated for 2 hours at room temperature. […] The wells were then incubated with 3, 3′, 5,5′-tetramethyl benzidine (0.2 g/liter, Kirkegaard & Perry Laboratories, Gaithersburg, Md.) for about 10 minutes at room temperature. Absorbance was read at 450 nm on a Vmax plate reader (Molecular Devices, Menlo Park, Calif.).
as §2
Target sequence in this assay (P17948 27-327 limits assumed): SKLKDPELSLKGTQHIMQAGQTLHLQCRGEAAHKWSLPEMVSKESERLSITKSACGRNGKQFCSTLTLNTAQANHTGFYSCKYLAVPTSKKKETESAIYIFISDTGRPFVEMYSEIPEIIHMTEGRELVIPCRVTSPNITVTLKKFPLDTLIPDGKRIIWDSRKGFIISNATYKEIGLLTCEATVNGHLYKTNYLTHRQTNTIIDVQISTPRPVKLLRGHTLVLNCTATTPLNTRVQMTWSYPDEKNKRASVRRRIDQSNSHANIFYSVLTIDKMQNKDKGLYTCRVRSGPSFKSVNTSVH

In assay [7] the target is T1, Flt-IgG (UniProt P17948 27-758, limits assumed).
T1 construct: also called chimeric Flt-human Fc molecule; not shown: human IgG Fc
T1 sequence (P17948 27-758 limits assumed): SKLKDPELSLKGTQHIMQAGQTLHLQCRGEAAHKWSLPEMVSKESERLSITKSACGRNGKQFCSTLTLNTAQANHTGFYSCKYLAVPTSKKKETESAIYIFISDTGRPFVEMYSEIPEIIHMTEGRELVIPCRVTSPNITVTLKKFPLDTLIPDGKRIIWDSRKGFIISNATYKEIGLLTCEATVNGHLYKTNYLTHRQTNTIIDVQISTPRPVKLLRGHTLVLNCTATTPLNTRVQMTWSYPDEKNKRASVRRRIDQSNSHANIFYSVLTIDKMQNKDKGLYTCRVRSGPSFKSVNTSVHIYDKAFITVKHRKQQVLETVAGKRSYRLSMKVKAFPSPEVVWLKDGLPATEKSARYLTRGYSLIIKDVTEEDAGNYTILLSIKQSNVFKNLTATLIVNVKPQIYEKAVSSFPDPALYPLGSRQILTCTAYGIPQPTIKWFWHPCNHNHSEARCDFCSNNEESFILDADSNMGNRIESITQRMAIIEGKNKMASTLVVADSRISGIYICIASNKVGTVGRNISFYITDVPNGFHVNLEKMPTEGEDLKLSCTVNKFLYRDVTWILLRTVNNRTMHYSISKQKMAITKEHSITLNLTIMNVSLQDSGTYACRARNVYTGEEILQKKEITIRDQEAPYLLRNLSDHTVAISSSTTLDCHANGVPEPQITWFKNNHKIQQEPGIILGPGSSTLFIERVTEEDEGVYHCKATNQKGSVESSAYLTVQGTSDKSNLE
Kind of assay: competition ELISA vs biotinylated native VEGF for Flt-IgG. The procedure: as §3, with “F(ab')2” for “F(ab′)2”
as §4
Aliquots of the mixture (100 μl) were added to the precoated microtiter wells and the plate was incubated for 2 hours at room temperature. […] The wells were then incubated with 3, 3', 5,5'-tetramethyl benzidine (0.2 g/liter, Kirkegaard & Perry Laboratories, Gaithersburg, Md.) for about 10 minutes at room temperature. Absorbance was read at 450 nm on a Vmax plate reader (Molecular Devices, Menlo Park, Calif.).

Assay [8] has as its target T2, KDR (1-3) (UniProt P35968 20-327, limits assumed).
T2 construct: domain: domains 1 to 3; Genentech reagent; also called KDR (1-3) monomer; domains 1 to 3 of KDR
Kind of assay: competition ELISA vs biotinylated native VEGF (8-109) for KDR (1-3). How it is done:
as §1
Aliquots of this mixture (100 μl) were added to the precoated microtiter wells and the plate was incubated for 1 hour at room temperature. […] The wells were then incubated with 3, 3', 5,5'-tetramethyl benzidine (0.2 gram/liter; Kirkegaard & Perry Laboratories, Gaithersburg, Md.) for about 10 minutes at room temperature. Absorbance was read at 450 nm on a Vmax plate reader (Molecular Devices, Menlo Park, Calif.).
as §2

For assay [9], the target named is gD-KDR receptor on CHO cells (UniProt P35968 20-1356). Kind of assay: cell-based or functional assay.

T2 sequence (P35968 20-327 limits assumed): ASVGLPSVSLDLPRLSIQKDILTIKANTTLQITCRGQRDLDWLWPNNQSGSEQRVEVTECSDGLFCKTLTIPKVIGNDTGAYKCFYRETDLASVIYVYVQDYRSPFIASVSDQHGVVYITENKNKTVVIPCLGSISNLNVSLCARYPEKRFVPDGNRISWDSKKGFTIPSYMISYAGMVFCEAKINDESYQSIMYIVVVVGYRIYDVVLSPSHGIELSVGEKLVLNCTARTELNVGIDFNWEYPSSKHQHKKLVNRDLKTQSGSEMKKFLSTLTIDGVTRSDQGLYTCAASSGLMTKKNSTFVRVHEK
KDR receptor, sequence (P35968 20-327 limits assumed): as above

As for `O=c1cc(N2CCOCC2)oc2c(-c3ccccc3)cccc12` [LY 294002, reference compound], in [1], the “inhibition of HUVEC cell migration” value amounted to 56%.

Turning to “Native VEGF (8–109): truncated native VEGF comprising amino acids 8 to 109 of the 165-amino acid vascular endothelial cell growth factor [reference compound]”, the Kd in assay [2] (Example 8, FIG. 8B, read-out: affinity for Flt-1 (RIA)) amounted to 0.4 nM.

For the molecule “Native VEGF 165: 165-amino acid native vascular endothelial cell growth factor [reference compound]”, the Kd in assay [2] (Table 6, read-out: Binding affinity, FLT-1 Receptor (RIA), value in parentheses) is 0.037 nM. Further, the PLC-gamma phosphorylation entry in [3] is given as “able to stimulate PLC-gamma phosphorylation to a similar extent”.

B1: LK-VRB-8s* (ligand)
chain: APMAEGGGQNHHEVVKFMDVLQRSYCHPIETLVDIFQEYPDEIEYIFKPSCVPLMRCGGCCNSEMRECVPTEESNITMQIMRIKPHQGQHIGEMSFLQHNKCECRPKKD
B1: in [4], the Endothelial Cell Proliferation Activity (HUVEC, 3H-thymidine) was determined as 0.5 nM and the Endothelial Cell Proliferation Activity (HUVEC, 3H-thymidine) (ratio to native VEGF (8-109)) came to 1. For the same molecule, the “Relative Binding Affinity, KDR Receptor: ratio to native VEGF (8–109)” value in assay [5] is listed as 0.5 nM/0.5. In assay [6], the “Relative Binding Affinity, FLT-1 Receptor: concentration at midpoint absorbance” value is “beyond the sensitivity of the ELISA assay” and the “Relative Binding Affinity, FLT-1 Receptor: ratio to native VEGF (8–109)” value is on record as “/>21000”. In addition, the “relative binding affinity (ratio to native VEGF (8-109))” value in [7] is > 21000 ratio. The “relative binding affinity (ratio to native VEGF (8-109))” value in assay [8] is 0.5 ratio.

B2: LK-VRB-9s (ligand, human, UniProt P15692-4 27-135, looked up)
chain: B1 chain with L21Y, Q22R
On to B2, for which, in [5], the “Relative Binding Affinity, KDR Receptor: ratio to native VEGF (8–109)” value was determined as 0.5 nM/0.5. For the same molecule, in assay [6], the “Relative Binding Affinity, FLT-1 Receptor: ratio to native VEGF (8–109)” value is given as “/300”. Besides, the “relative binding affinity (ratio to native VEGF (8-109))” value in [7] worked out at 300 ratio; in assay [8], 0.5 ratio.

B3: LK-VRB-3s (ligand, human, UniProt P15692-4 27-135, looked up)
chain: B1 chain with F17I, M18E, L21F, Q22K, Y25S, S63D, M65G, R66L
Consider B3, for which the “Phosphorylation-Inducing Activity (KIRA assay)” value in assay [9] is 1 ratio to native VEGF (8-109). Besides, the “relative binding affinity (ratio to native VEGF (8-109))” value in assay [7] is 400 ratio; in [8], 1 ratio.

B4: LK-VRB-7s* (ligand, human, UniProt P15692-4 27-135, looked up)
chain: B1 chain with M18E, L21Y
As for B4, the “Endothelial Cell Proliferation Activity (HUVEC, 3H-thymidine)” value in [4] is 1 ratio to native VEGF (8-109). Also, the “Relative Binding Affinity, KDR Receptor: ratio to native VEGF (8–109)” value in assay [5] is recorded as 1 nM/1. Further, in assay [6], the “Relative Binding Affinity, FLT-1 Receptor: concentration at midpoint absorbance” value was “beyond the sensitivity of the ELISA assay” and the “Relative Binding Affinity, FLT-1 Receptor: ratio to native VEGF (8–109)” value is listed as “/>15000”. In addition, the “relative binding affinity (ratio to native VEGF (8-109))” value in assay [7] was > 15000 ratio. The “relative binding affinity (ratio to native VEGF (8-109))” value in [8] turned out to be 1 ratio.

B5: LK-VRB-2f (ligand, human, UniProt P15692-4 27-191, looked up)
chain: APMAEGGGQNHHEVVKFMDVYQRSYCHPIETLVDIFQEYPDEIEYIFKPSCVPLMRCGGCCNSEMRECVPTEESNITMQIMRIKPHQGQHIGEMSFLQHNKCECRPKKDRARQENPCGPCSERRKHLFVQDPQTCKCSCKNTDSRCKARQLELNERTCRCDKPRR
Regarding B5, the “Endothelial Cell Proliferation Activity (HUVEC, 3H-thymidine)” value in assay [4] is 0.1 ratio to native VEGF (8-109).

B6: native VEGF (8-109) (ligand, human, UniProt P15692 214-315, looked up)
chain: GQNHHEVVKFMDVYQRSYCHPIETLVDIFQEYPDEIEYIFKPSCVPLMRCGGCCNDEGLECVPTEESNITMQIMRIKPHQGQHIGEMSFLQHNKCECRPKKD
notes: Homodimer
Consider B6, for which the “Phosphorylation-Inducing Activity (KIRA assay)” value in assay [9] was 2 nM. Moreover, the “Endothelial Cell Proliferation Activity (HUVEC, 3H-thymidine)” value in assay [4] was found to be 0.5 nM. The same molecule had an IC50 in assay [7] of 0.42 nM.
